Results from US20240166738A1 (Alector, published 2024).
Where a chain is given by its changes, count along the chain named.

B1: TM-25 (antibody, V domains shown)
VH: EVQLVESGGDLVKPGGSLRLSCAASGFTFSGYGMSWIRQTPDKRLEWVATISSGGRYTVYPDSVKGRFTMSRDNVKNTLYLQMSSLKSEDTALYYCARDNFYSYAMDYWGLGTSVTVSA
VL: DIVMTQAAFSNPVTLGTSASISCRSSKSLLHSNGITYLFWYLQKPGQSPQLLIYQMSNLASGVPDRFSSSGSGTDFTLRISRVEAEDVGVYYCAQNLELWTFGGGTKLEIK
B2: TM-61 (antibody, V domains shown)
VH: QVQLQQSGAELAKPGASVKLSCKASGYTFTNYWMNWVKQRPGQGLEWIGYINPSSDYTKYNQNFKDKATLTADKSSSTAYMQLNSLTYEDSAVYYCTRWGGSRSYWYFDVWGAGTTVTVSS
VL: DIVMTQSPSSLSASAGEKVTMSCKSSQSLLNSGNQKNYLAWYQQKPGQSPKLLIYGASTRESGVPDRFTGSGSGTDFTLTISSVQAEDLAVYYCQNDSNYPFTFGGGTKLEMK
B3: TM-11 (antibody, V domains shown)
VH: QVQLKQSGPGQVQPSQSLSITCTVSGFSLSDYGVHWVRQSPGKGLEWLGVIWNNGNTDYNAAFISRLSINKDNSKSQVFFKMTSLQADDTAIYYCVRSLRPLHFDYWGQGTTVTVSS
VL: DIVMTQSPSSLTMSVGQKVTMHCKSSQSLLNSNNLQNYLAWYQQKPGQSPTLLVYFASIRESGVPDRFIGSGSGTDFTLTISSVQAEDLADYFCQQHYNTPFTFGSGTKLEIR
B4: TM-24 (antibody, V domains shown)
VH: B3 VH
VL: B3 VL with H22N, L35Q, T51K, S82N, N99S
B5: TM-21 (antibody, V domains shown)
VH: EVQLVESGGGLVKPGGSLKLSCAASGFTFSNYAMSWVRETPEKRLEWVAFISDGGGYIYYADNVKDRFTISRDNAKNNLYLQMRHLKSEDTAMYYCARDGGTGFTYWGQGTLVTVSV
VL: DIVMTQAAFSNPVTLGTSASISCRSSKSLLHSNGITYLFWYLQKPGQSPQLLIYQMSNLASGVPDRFSSSGSGTDFTLRISRVEAEDVGVYYCVQNLELPYTFGGGTKLEIK
B6: TM-10 (antibody, V domains shown)
VH: QVQLQQSGAELVKPGASVKISCKGSGYAFSSYWMNWVKQRPGKGLEWIGQIYPGDGDTNYNGKFKGKATLTADKSSTTAYIHLSSLTSEDSAVYFCARWGHYDEAMDDWGQGTSVTVSS
VL: DVVMTQTPLSLPVSLGDQASISCRSSQSLVHSNGKTYLHWYVQKPGQSPKLLIYKISNRFSGVPDRFSGSGSGTDFTLKISRVEAEDLGVYFCSQITHVPWTFGGGTKLESK
B7: TM-72 (antibody, V domains shown)
VH: QVQLQQPGAELVKPGTSVKLSCKASGSTFTNYWMHWVMQRPGQGLEWIGNIDPSDSDTHYNQKFKDRAKLTVDKSSSTAYMQLSGLTSEDSAVYYCARSRGGYYDYGEAMDYWGQGTSVTVSS
VL: DIVMTQAAPSVPVTPGESVSISCRSSKSLLHTNGNTYLFWFIQRPGQSPHLLIYRKSNLASGVPDRFSGSGSGTAFTLRISRVEAEDVGVYYCMQHLEYPFTFGSGTKLEIK
B8: TM-29 (antibody, V domains shown)
VH: QVQLRQSGAELVRPGASVKLSCKASGYTFTDYYINWVKQRPGQGLEWIARIYPGSGYTYYNEKFKGKATLTAEGSSNTAYMQLSSLTSEDSAVYFCANHYTNPFAYWGQGTLVTVSA
VL: B5 VL with S32Y, F39Y, V94A
B9: TM-45 (antibody, V domains shown)
VH: B2 VH with N35H, Q39K, D56G, N63K, S77N, N84S, W99E, R103I, Y105D, A113T
VL: B7 VL with V11L, T32S, F39Y, I42L, H50Q, K56M, F101Y, S105G
B10: TM-37 (antibody, V domains shown)
VH: QVQLQQSGAELAKPGASVKLSCKASGYTFTSYWMHWVKQRPGQGLEWIGYVNPSSGYTKNNQKFKDKVTLTADKSSSTAYMQLSSLTYEDSAVYYCAREGGSISDWYFDVWGTGTTVTVSS
VL: B7 VL with T32S, L38S, F39Y, I42L, H50Q, K56M, F101Y, S105G
B11: TM-59 (antibody, V domains shown)
VH: B10 VH with T30I, V68A
VL: B7 VL with T32S, L38S, F39Y, I42L, H50Q, K56M, F101Y, S105G
B12: TM-78 (antibody, V domains shown)
VH: QVQLQQPGAELVKPGASVKLSCKASGYTFTNHWMHWVRQRPGQGLEWIGNIDPSDSDTHYNHKFKDKATLIVDKSSSTAYLQLSSLTSEDSAVFYCARSRGGYYDYGEAMDYWGQGTSVTVSS
VL: B7 VL with A8T, V11I, T32V, I42L, H50Q, K56M
B13: TM-86 (antibody, V domains shown)
VH: EVQLQQSGPVLVKPGASVKMSCKASGYTFTDYYIHWVKQSHGRSLEWIGVISPYNDNTNYNQKFKGKATLTVDKSSSTAYMELNSLTSEDSAVYYCVRTYYSNYFDYWGQGTTLTVSS
VL: B2 VL with A13V, Y42H, K45R, S49P, D76E, S98H, N99S, F102L, G106A, M112L
B14: TM-35 (antibody, V domains shown)
VH: QVQLQQSGPELVRPGTSVKISCKAPGYTFTRHWMQWVRQRPGQGLEWIGEILPGSNNIYYNEKVKGKATLTVDTSSSTSYMQLSSLTSEDSAVYFCARSLYDYDGVFAYWGQGTLVTVSA
VL: DVLMTQIPLSLPVSLGDQASISCRSSQSIVHRNGNTYLEWYLQKPGQSPKLLIYKVSNRFSGVPDRFSGSGSGTDFTLKISRVEAEDLGVYYCFQGSHVPYTFGGGTKLEIK
B15: TM-32 (antibody, V domains shown)
VH: EVQLQQSGAELVRPGASVRLSCIASGFNIKDYYMYWVKQRPEQGLEWIGRIDPEDGDTEYVPKFQGKATMTADTSSNTAYLQLSSLTSEDIGVYYCTTRTWDLYYAVDNWGQGTSVTVSS
VL: B14 VL with I7T, S28N, R32S, Y54D, V90I, Y101F, G105S
B16: TM-60 (antibody, V domains shown)
VH: QVQLQQSGPELVKPGASVKLSCKASGYTFTSYDINWVKQRPGQGLEWIGWIYPRDGNTQYIEKLKGKATLTVDTSSSTAYMELHSLTSEDSAVYFCARWIFYAMDYWGQGTSVTVSS
VL: B14 VL with I7T, R32G, V99L
B17: TM-48 (antibody, V domains shown)
VH: B16 VH
VL: B14 VL with I7T, D17N, R32G, V99L
B18: TM-63 (antibody, V domains shown)
VH: QVQLQQPGAELVKFGASVKLSCKASGYTFTSFWMHWVKQRPGQGLEWIGNIDPSDSETHYSQKFKDKATLTVDRSSNTAYIQLSSLTSEDSAVYYCARSSNWDNFDYWGQGTTVTVSS
VL: DIVMTQASPSVSVTPGESVSISCRSSQSLLHVNGNTYLYWFLQRPGRSPRLLIYRMSNLASGVPDRFSGSGSGTAFTLRISRVEAEDVGVYYCMQHLQYPFSFGSGTKLEMK
B19: TM-64 (antibody, V domains shown)
VH: QVQLQQPGAELVKPGASVKLSCKASGYTFTSYWMHWVKQRPGHGLEWIGNIDPSDSDTHYNQNFRGKATLTVDKFSTTAYMHLSSLTSEDSAVYYCARSRGGTYDYGEAMDYWGQGTSVTVSS
VL: B7 VL with I42L, Q47R, H50Q, K56M
B20: TM-76 (antibody, V domains shown)
VH: QVTLKESGPGILQPSQTLSLTCSFSGFSLSTSGMGVSWIRKPSGKGLEWLAHIFWDDDKRYNLFLKSRLTVSKDTSSNQVFLMITSVDTTDTATYYCARMGRQRDYFDYWGQGTSLTVSS
VL: QIILTQSPAIMSASLGEEITLTCSASLSISYVHWYQQKSGASPKLLIYGTSNLASGVPSRFSGSGSGTFYSLTISSVEAEDAADYYCHQWSIYRTFGGGTKLEMK
B21: TM-28 (antibody, V domains shown)
VH: EVQLQQSGPVLVKPGPSVKISCMASVFTFNDYYIHWVKQSHGKSLEWIGLVYPYNGGTNYNQNFKGKATLTVDTSSRTAYMELNSLTSEDSAVYYCARSYFSNPIGYWGQGTLVTVSE
VL: B2 VL with A13V, A15V, M21V, S49P, S98H, N99S, F102L, G106A, M112L
B22: TM-13 (antibody, V domains shown)
VH: QVQLQQSGAELVKPGASVKMSCKASGYTFTTFPIEWMKQSHGKGLEWIGNFHPYNDDTKYNEKFKGKATLTVDKSSSTVYLDLSRLTSDDSAVYYCARYFYGGMDYWGQGTSVTVSS
VL: DIQMTQSPASLSVSVGETVTITCRASENIYSSLGWYQQKQGESPQLLVFAATNLADGVPSRFSGSGSGTQYSLKINSLQSEDFGTYYCQHLWSIPWTFGGGTRLEIK
B23: TM-84 (antibody, V domains shown)
VH: B22 VH with S40N, G44S, D73E, D82E
VL: B22 VL with Q37H, E42K, I94V, R103K
B24: TM-30 (antibody, V domains shown)
VH: QVQLQQSGPELVKPGASVKLSCKASDNTFTNYDVNWVRQRPGQGLEWIGWIYPRDGTTIYNEKFKGRATLTVDTSSSTAYMELHSLTSEDSAVFFCARTLPQAMDYWGQGTSVTVSS
VL: B14 VL with I7S, A19V, S28T, V99L, Y101W
B25: TM-88 (antibody, V domains shown)
VH: EAQLQQSGPVLVKPGASVKMSCKTSGYTFTDYYINWVKQSHGKSLEWIGVINPYSGATYYTQKFKGKATLTVDKSSSTAYMELNSQTSEDSAVYYCARGGYDYGHWYFDVWGTGTTVTVSS
VL: ETTVTQSPASLSMAIGEKVTIRCITSSDIDDHMNWYRQKPGEPPEFLISEGNALRPGVPSRFSSSGYGTDFIFTIENILSEDVADYYCLQSDNLPLTFGAGTKLELK

These binders were tested against human TMEM106B (human, UniProt Q9NUM4 2-274) (assay: cell-based or functional assay).
Also: test concentration or dose not given here.

| Binder | % Protection from CPE [%] |
| --- | --- |
| B1 | 106 |
| B2 | 94.1 |
| B3 | 93.9 |
| B4 | 8.4 |
| B5 | 93.7 |
| B6 | 93.3 |
| B7 | 92.7 |
| B8 | 92.6 |
| B9 | 32.6 |
| B10 | 90.2 |
| B11 | 92.3 |
| B12 | 91.1 |
| B13 | 90.5 |
| B14 | 90.4 |
| B15 | 105 |
| B16 | 94.2 |
| B17 | 89.3 |
| B18 | 89.3 |
| B19 | 89.3 |
| B20 | 89.2 |
| B21 | 85.4 |
| B22 | 81.8 |
| B23 | 53.1 |
| B24 | 104 |
| B25 | 78.5 |
